From patent US20250262242A1 (published 2025) come the findings set out here.

Numbering of substitutions follows the chain as printed.

For experiment [1], the target named is T1, mutant splice factor-induced (SF3B1mut) splice variant of MAPK8IP2 peptide on HLA-A*02:01 (human).
T1 peptide: RLPGVLPRA
Put plainly: killing.

Experiment [2] addresses T2, EBV LMP2 peptide on HLA-A*02:01 (human).
T2 peptide: CLGGLLTMV
Put plainly: activation reporter or marker.

Experiment [3] deals with T3, EBV BRLF1 peptide on HLA-A*02:01 (human).
T3 peptide: YVLDHLIVV
As to the kind of experiment: activation reporter or marker.

Experiment [4] has as its target T4, HERV-K gag protein peptide on HLA-A*02:01 (human).
T4 peptide: FLQFKTWWI
As to the kind of experiment: killing.

Experiment [5] addresses T5, EBV LMP2 (LMP2A) peptide on HLA-A*02:01 (human).
T5 peptide: MGSLEMVPM
Put plainly: activation reporter or marker.

In experiment [6] the target is T6, EBV BZLF1 peptide on HLA-B*35:01 (human).
T6 peptide: EPLPQGQLTAY
Put plainly: activation reporter or marker.

For experiment [7], the target named is T1, mutant splice factor-induced (SF3B1mut) …. As to the kind of experiment: multimer staining.

B1: TCR_A0130 (TCR, V domains shown)
Valpha: AQTVTQSQPEMSVQEAETVTLSCTYDTSESNYYLFWYKQPPSRQMILVIRQEAYKQQNATENRFSVNFQKAAKSFSLKISDSQLGDTAMYFCAFMIPDSNYQLIWGAGTKLIIKP
Vbeta: ETGVTQTPRHLVMGMTNKKSLKCEQHLGHNAMYWYKQSAKKPLELMFVYNFKEQTENNSVPSRFSPECPNSSHLFLHLHTLQPEDSALYLCASSQVGTSGRGGELFFGEGSRLTVL
Consider B1, for which the binding result in experiment [1] is “recognises”.

B2: TCR_A0061 (TCR, V domains shown)
Valpha: KQEVTQIPAALSVPEGENLVLNCSFTDSAIYNLQWFRQDPGKGLTSLLLIQSSQREQTSGRLNASLDKSSGRSTLYIAASQPGDSATYLCAVLMDSNYQLIWGAGTKLIIKP
Vbeta: DAGITQSPRYKITETGRQVTLMCHQTWSHSYMFWYRQDLGHGLRLIYYSAAADITDKGEVPDGYVVSRSKTENFPLTLESATRSQTSVYFCASSSDGMNTEAFFGQGTRLTVV
Take B2: in experiment [2], the binding result is listed as “recognises”.

B3: TCR_A0005 (TCR, V domains shown)
Valpha: AQKITQTQPGMFVQEKEAVTLDCTYDTSDQSYGLFWYKQPSSGEMIFLIYQGSYDEQNATEGRYSLNFQKARKSANLVISASQLGDSAMYFCAMREGGNFNKFYFGSGTKLNVKP
Vbeta: SAVISQKPSRDICQRGTSLTIQCQVDSQVTMMFWYRQQPGQSLTLIATANQGSEATYESGFVIDKFPISRPNLTFSTLTVSNMSPEDSSIYLCSVGGTSGTLPANEQFFGPGTRLTVL
In the case of B3, the binding result in experiment [3] is listed as “recognises”.

B4: TCR_A0100 (TCR, V domains shown)
Valpha: KQEVTQIPAALSVPEGENLVLNCSFTDSAIYNLQWFRQDPGKGLTSLLLIQSSQREQTSGRLNASLDKSSGRSTLYIAASQPGDSATYLCAVGGNNNDMRFGAGTRLTVKP
Vbeta: AAGVIQSPRHLIKEKRETATLKCYPIPRHDTVYWYQQGPGQDPQFLISFYEKMQSDKGSIPDRFSAQQFSDYHSELNMSSLELGDSALYFCASSLINTEAFFGQGTRLTVV
For the molecule B4, in experiment [4], the binding result was “recognises”.

B5: TCR_A0015 (TCR, V domains shown)
Valpha: AQSVTQLDSQVPVFEEAPVELRCNYSSSVSVYLFWYVQYPNQGLQLLLKYLSGSTLVKGINGFEAEFNKSQTSFHLRKPSVHISDTAEYFCAVSALSYNQGGKLIFGQGTELSVKP
Vbeta: DAGVIQSPRHEVTEMGQEVTLRCKPISGHNSLFWYRQTMMRGLELLIYFNNNVPIDDSGMPEDRFSAKMPNASFSTLKIQPSEPRDSAVYFCASSWTGNEQYFGPGTRLTVT
In the case of B5, the binding result in experiment [5] is listed as “recognises”.

B6: TCR_A0099 (TCR, V domains shown)
Valpha: ILNVEQSPQSLHVQEGDSTNFTCSFPSSNFYALHWYRWETAKSPEALFVMTLNGDEKKKGRISATLNTKEGYSYLYIKGSQPEDSATYLCAVNAGGTSYGKLTFGQGTILTVHP
Vbeta: EAGVAQSPRYKIIEKRQSVAFWCNPISGHATLYWYQQILGQGPKLLIQFQNNGVVDDSQLPKDRFSAERLKGVDSTLKIQPAKLEDSAVYLCASSSDWTANNEQFFGPGTRLTVL
For the molecule B6, in experiment [6], the binding result is reported as “recognises”.

B7: TCR_A0064 (TCR, V domains shown)
Valpha: GQQVMQIPQYQHVQEGEDFTTYCNSSTTLSNIQWYKQRPGGHPVFLIQLVKSGEVKKQKRLTFQFGEAKKNSSLHITATQTTDVGTYFCAGAGAGSYQLTFGKGTKLSVIP
Vbeta: KAGVTQTPRYLIKTRGQQVTLSCSPISGHRSVSWYQQTPGQGLQFLFEYFSETQRNKGNFPGRFSGRQFSNSRSEMNVSTLELGDSALYLCASSLEGQASSYEQYFGPGTRLTVT
Turning to B7, in experiment [2], the binding result is given as “recognises”.

B8: TCR_A0066 (TCR, V domains shown)
Valpha: B7 Valpha
Vbeta: B7 Vbeta with L95A
B8: the binding result in experiment [2] is listed as “recognises”.

B9: TCR_A0001 (TCR, V domains shown)
Valpha: AQSVSQHNHHVILSEAASLELGCNYSYGGTVNLFWYVQYPGQHLQLLLKYFSGDPLVKGIKGFEAEFIKSKFSFNLRKPSVQWSDTAEYFCAVKDTDKLIFGTGTRLQVFP
Vbeta: not shown
As for B9, the binding result in experiment [3] is “recognises”.

B10: TCR_A0002 (TCR, V domains shown)
Valpha: B9 Valpha
Vbeta: DTAVSQTPKYLVTQMGNDKSIKCEQNLGHDTMYWYKQDSKKFLKIMFSYNNKELIINETVPNRFSPKSPDKAHLNLHINSLELGDSAVYFCASSPDFNEQFFGPGTRLTVL
As for B10, the binding result in experiment [3] is recorded as “recognises”.

B11: TCR_A0004 (TCR, V domains shown)
Valpha: B9 Valpha
Vbeta: not shown
Consider B11, for which the binding result in experiment [3] was “recognises”.

B12: TCR_A0003 (TCR, V domains shown)
Valpha: AQSVSQHNHHVILSEAASLELGCNYSYGGTVNLFWYVQYPGQHLQLLLKYFSGDPLVKGIKGFEAEFIKSKFSFNLRKPSVQWSDTAEYFCAGGAAGNKLTFGGGTRVLVKP
Vbeta: EAGVAQSPRYKIIEKRQSVAFWCNPISGHATLYWYQQILGQGPKLLIQFQNNGVVDDSQLPKDRFSAERLKGVDSTLKIQPAKLEDSAVYLCASSSPLGGFAGANVLTFGAGSRLTVL
On to B12, for which the binding result in experiment [3] is reported as “recognises”.

B13: TCR_A0131 (TCR, V domains shown)
Valpha: AQTVTQSQPEMSVQEAETVTLSCTYDTSENNYYLFWYKQPPSRQMILVIRQEAYKQQNATENRFSVNFQKAAKSFSLKISDSQLGDTAMYFCAFMLIDSGTYKYIFGTGTRLKVLA
Vbeta: EAQVTQNPRYLITVTGKKLTVTCSQNMNHEYMSWYRQDPGLGLRQIYYSMNVEVTDKGDVPEGYKVSRKEKRNFPLILESPSPNQTSLYFCASSLGQGTETQYFGPGTRLLVL
On to B13, for which the binding result in experiment [1] is “recognises”.

B14: TCR_A0358 (TCR, V domains shown)
Valpha: B13 Valpha with L96G, I97P
Vbeta: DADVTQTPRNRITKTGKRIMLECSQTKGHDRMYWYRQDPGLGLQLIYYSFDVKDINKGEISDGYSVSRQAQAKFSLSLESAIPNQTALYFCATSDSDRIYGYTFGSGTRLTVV
Turning to B14, the binding result in experiment [7] is given as “recognises”.
